The chains are these.
T1: cynomolgus GFRα3 on HEK293/MfGFRα3/MfRet/SRE-Luc cells (cynomolgus, UniProt O60609 1-400 (human entry), limits assumed)
T1 chain: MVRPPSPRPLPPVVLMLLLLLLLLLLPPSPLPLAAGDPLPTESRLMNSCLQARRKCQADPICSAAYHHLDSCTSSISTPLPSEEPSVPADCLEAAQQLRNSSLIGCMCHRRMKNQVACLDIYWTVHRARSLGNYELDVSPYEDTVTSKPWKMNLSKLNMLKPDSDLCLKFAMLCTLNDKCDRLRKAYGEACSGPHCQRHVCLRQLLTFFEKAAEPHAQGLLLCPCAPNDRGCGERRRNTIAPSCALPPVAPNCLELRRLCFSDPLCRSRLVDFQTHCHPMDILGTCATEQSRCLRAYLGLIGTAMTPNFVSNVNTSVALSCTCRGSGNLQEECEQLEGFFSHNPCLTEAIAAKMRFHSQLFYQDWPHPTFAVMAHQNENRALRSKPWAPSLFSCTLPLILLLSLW

B1: H4H2243N2 (antibody, human IgG4, V domains shown)
VH: QVQLVQSGAEVKKPGASVKVSCKASGYTFTSYGIIWVRQAPGQGLEWMGWISGYNGNTNYAQNLQGRVTMTTDTSTTTAYMELRSLRSDDTAVYYCARWGIATRPYYYYGMDVWGQGTTVTVSS
VL: DIQMTQSPSSLSASVGDRVTITCRASQDITNYLAWFQQKPGKAPKSLIYAASSLQSGVPSKFSGSGSGTDFTLTISSLQPEDFATYYCQQYNSYPPTFGPGTKVDIK
notes: human IgG4 Fc (H4H)
B2: H4H2212N (antibody, human IgG4, V domains shown)
VH: EVQLLESGGGLVQPGGSLRLSCAASGFTFSSYAMSWVRQGPGKGLEWVSGISGSGGSTYNADSVKGRFTISRDNSKNTLYLQMNSLRAEDTAVYYCAKDSGTYWYYFDYWGQGILVTVSS
VL: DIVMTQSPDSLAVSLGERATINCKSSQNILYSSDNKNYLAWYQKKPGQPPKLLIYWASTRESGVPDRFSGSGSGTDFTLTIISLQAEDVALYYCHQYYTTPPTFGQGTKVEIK
notes: human IgG4 Fc (H4H)
B3: H4H2292S (antibody, human IgG4, V domains shown)
VH: EVQLVESGGGVVQPGRSLRLSCAASGFTFSSYGMHWVRQAPGKGLEWVSFIWYDGSNKYYADSVKGRFTISRDNSKNTLYLQMNSLTAEDTAVYYCARRGILTGTTAFDIWGQGTMVTVSS
VL: DIQMTQSPSSLSASVGDRVTITCRASQSISSYLNWYQQKPGKAPKLLIYAASSLQSGVPSRFSGSGSGTDFTLTIRSLIPEDFATYYCQQTYNTPFTFGPGTKVEIK
notes: human IgG4 Fc (H4H)
B4: H4H2352S (antibody, human IgG4, V domains shown)
VH: EVQLVQSGAEVKKPGASVKVSCKASGYTFTNYGITWVRQAPGQGLEWMGWISAYNGNTGYAQKFQGRVTMTTDTSTSTAYMELRSLRSDDTAVYYCAREDYDFWRAFDIWGQGTMVTVSS
VL: EIVLTQSPGTLSLSPGERATLSCRASQSVSSTYLAWLQQKPGQAPRLLIYGASSRATGIPDRFSGSGSGTDFTLTINRLEPEDFAVYYCQQYAYSPYTFGQGTKLEIK
notes: human IgG4 Fc (H4H); also called H4H2352S-1
B5: H4H2342P (antibody, human IgG4, V domains shown)
VH: EVQLLESGGGLVQPGGSLRLSCAASGFTFSTYAMSWVRQAPGKGLEWVSAIRGNGVNTYYGDSMKGRFTISRDNSKDTLYLQMNSLRAEDTAVYYCAKNKWELLVFEYWGQGTLVTVSS
VL: DIQMTQSPSSLSASVGDRVTITCRASQDISNYLAWYQQKPGKVPKLLIYAASTLQSGVPFRFSGSGSGTDFTLTISSLQPEDVATYYCQKYNSAPPFGPGTKVDIK
notes: human IgG4 Fc (H4H)
B6: H4H2294S (antibody, human IgG4, V domains shown)
VH: EVQLVESGGGLVQPGGSLRLSCAASGFTFSSYAMSWVRQAPGKGLEWVSVISGSGGSTYYADAVKGRFTISRDNSKHTLYLQMNSLRAEDTAVYYCTKPSSYSSSNFYYGMDVWGQGSTVTVSS
VL: DIQLTQSPSSVSASVGDRVTITCRASQGISSWLAWYQQKPGKAPKLLIYAASSLQSGVPSRFSGSGSGTDFTLTISSLQPEDFATYYCQQTNSFPFPFGPGTKVDIK
notes: human IgG4 Fc (H4H)

Here are results for six molecules from patent publication US20140056903A1 (Regeneron, published 2014).

In one assay the target is T2, human GFRα3 expressed with a C-terminal myc-myc-hexahistidine tag (human, UniProt O60609 32-374, biotinylated (sites not given) in ELISA format 2 and in the Octet cross-competition; not in SPR).
T2 construct: also called hGFRα3-mmh; hGFRα3-mmH
Briefly: Octet cross-competition; biotin-hGFRα3-mmH pre-saturated with first antibody H4H2243N2. The protocol: (§1) A cross-competition assay was conducted to assess the ability of select antibodies to compete with one another for binding to human GFRα3 using an Octet RED384 biosensor (Fortebio Inc.). The entire experiment was performed at 25° C. with the flow rate of 1000 rpm in Octet HBST buffer (0.01 M HEPES pH7.4, 0.15M NaCl, 3 mM EDTA, 0.05% v/v Surfactant P20, 0.1 mg/mL BSA). To assess whether 2 antibodies were able to compete with one another for binding to their respective epitopes on biotinylated recombinant human GFRα3 expressed with a C-terminal myc-myc-hexahistidine tag (biotin-hGFRα3-mmH; SEQ ID:370), around ˜1.2 nm of biotin-hGFRα3-mmH was first captured onto streptavidin-coated Octet sensor tips (Fortebio Inc, #18-5019) by submerging the tips for 1 minute into a 10 μg/mL solution of biotin-hGFRα3-mmH. The antigen coated sensor tips were then placed into wells containing 25 μg/mL solution of a first anti-GFRα3 monoclonal antibody for 4 minutes to saturate the biotin-hGFRα3-mmH surface. The sensor tips were then subsequently dipped into wells containing 25 μ/mL solution of a second anti-GFRα3 monoclonal antibody. The sensor tips were washed in Octet HBST buffer in between every step of the experiment. The real-time binding response was monitored during the course of the experiment and the binding response at the end of every step was recorded as shown in FIG. 9. The response of mAb-2 binding to biotin-hGFRα3-mmH pre-complexed with the first antibody was compared and competitive/non-competitive behavior of different anti-GFRα3 monoclonal antibodies was determined.
Regarding B1, the “binding response of second antibody (nm)” value worked out at 0.06 nm.
The same measure, in the same setting: with B2 the figure was 0.22 nm; with B3, 1.7 nm; with B4, 0.46 nm.
Same read-out and setting: with B5 the figure was 0.15 nm; with B6, 0.29 nm.

Another assay deals with T2, human GFRα3 expressed with a C-terminal …. Briefly: Octet cross-competition; biotin-hGFRα3-mmH pre-saturated with first antibody H4H2236N3. As to the method:
as §1
Background: In BLI a coated tip is dipped into the sample, and binding shifts an interference pattern.
Regarding B1, the “binding response of second antibody (nm)” value came out at 0.02 nm.
Consider B2, for which the “binding response of second antibody (nm)” value turned out to be 1.79 nm.
On the same count and under the same terms, with B3 the figure was 1.81 nm.
The same measure, in the same setting: with B4 the figure was 1.91 nm; with B5, -0.01 nm.
Still for that read-out and setting: next, B6: 0 nm.

The target in another assay is T3, human GFRα3 expressed with a C-terminal hFc tag (human).
T3 construct: also called hGFRα3-hFc
T3 sequence (chain, as listed by the source limits assumed): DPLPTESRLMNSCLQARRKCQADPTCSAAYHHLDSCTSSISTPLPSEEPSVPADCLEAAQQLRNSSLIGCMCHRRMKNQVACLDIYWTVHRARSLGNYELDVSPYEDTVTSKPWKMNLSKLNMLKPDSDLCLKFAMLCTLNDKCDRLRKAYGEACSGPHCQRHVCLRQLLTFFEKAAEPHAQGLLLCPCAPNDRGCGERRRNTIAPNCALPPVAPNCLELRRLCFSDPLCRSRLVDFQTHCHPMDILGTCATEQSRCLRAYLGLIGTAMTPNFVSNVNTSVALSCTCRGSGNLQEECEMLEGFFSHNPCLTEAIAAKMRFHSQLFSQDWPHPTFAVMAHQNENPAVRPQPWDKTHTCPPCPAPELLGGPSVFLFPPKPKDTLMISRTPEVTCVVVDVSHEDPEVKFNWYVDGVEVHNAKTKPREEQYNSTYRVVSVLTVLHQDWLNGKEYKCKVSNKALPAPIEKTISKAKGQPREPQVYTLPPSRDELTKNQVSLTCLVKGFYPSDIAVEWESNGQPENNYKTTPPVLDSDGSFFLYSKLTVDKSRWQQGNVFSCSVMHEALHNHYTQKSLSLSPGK
Briefly: blocking ELISA 1, hGFRα3-hFc to coated hARTEMIN-mmH. The protocol:
A constant amount of human GFRα3 fused with a C-terminal human Fc tag (hGFRα3-hFc; SEQ ID:371) at 120 pM was pre-mixed with varying amounts of antibodies, ranging from 0 to ˜10 nM in serial dilutions, followed by an 1 hour incubation at room temperature (RT) to allow antibody-hGFRα3-hFc binding to reach equilibrium. The equilibrated sample solutions were then transferred to the hARTEMIN-mmH-coated plate. […] Absorbance was recorded at 450 nm on a Victor X5 plate reader (Perkin Elmer) to determine the amount of free hGFRα3-hFc in the pre-equilibrated hGFRα3-hFc-antibody solutions that was able to bind to the plate coated with hARTEMIN-mmH. IC₅₀ values, defined as the concentration of antibody required to reduce the signal from a constant concentration of hGFRα3-hFc by 50%, were calculated from the data using Prism software from GraphPad. The absorbance measured at the constant amount of 120 pM hGFRα3-hFc in the absence of anti-GFRα3 antibody is defined as 0% blocking and the absorbance with no added hGFRα3-hFc is defined as 100% blocking. The observed absorbance in the wells containing the highest antibody concentration was used to calculate the maximum blocking percent shown in the table.
On the technique in general: In an ELISA, binding on a coated surface is turned into a signal by an enzyme label.
As a reminder, the IC50 is the concentration that gives 50% inhibition. A high value points to weaker potency. B2: the “% max blocking” value was 81% and the midpoint of inhibition, the IC50, lay at 0.0438 nM.
For the molecule B3, the “% max blocking” value amounted to 89% and the IC50 was determined as 0.723 nM.
For B4, in that order: 51% and 0.0658 nM.

A further assay addresses T2, human GFRα3 expressed with a C-terminal …. Nature of the assay: Octet cross-competition; biotin-hGFRα3-mmH pre-saturated with first antibody H4H2296S. As to the method:
as §1
Regarding B1, the “binding response of second antibody (nm)” value is 0.06 nm.
The same measure, in the same setting: next, B2: 1.76 nm; B3: 1.87 nm; B4: 2.01 nm.
As for B5, the “binding response of second antibody (nm)” value is 0.03 nm.
In the case of B6, the “binding response of second antibody (nm)” value was found to be 0.04 nm.

For the next assay the target is unchanged. Nature of the assay: Octet cross-competition; biotin-hGFRα3-mmH pre-saturated with first antibody H4H2342P. As to the method: as §1
With B1, the “binding response of second antibody (nm)” value worked out at 0.11 nm.
Still for that read-out and setting: with B2 the figure was 1.76 nm.
On the same count and under the same terms, next, B3: 1.85 nm.
For the molecule B4, the “binding response of second antibody (nm)” value came out at 1.72 nm.
Consider B5, for which the “binding response of second antibody (nm)” value worked out at 0.06 nm.
Take B6: the “binding response of second antibody (nm)” value came out at 0.23 nm.

For another assay the target is unchanged. Nature of the assay: Octet cross-competition; biotin-hGFRα3-mmH pre-saturated with first antibody H4H2357S. The protocol: as §1
Regarding B1, the “binding response of second antibody (nm)” value stood at 0.01 nm.
For B2, the “binding response of second antibody (nm)” value turned out to be 1.9 nm.
Same read-out and setting: with B3 the figure was 1.92 nm; with B4, 2 nm; with B5, -0.01 nm.
On the same count and under the same terms, next, B6: 0.05 nm.

The target in a further assay is T1, cynomolgus GFRα3 on …. Nature of the assay: cell-based or functional assay.
For the molecule B1, the “IC50 (SRE-luc, HEK293/MfGFRα3/MfRET cells, 500 pM human ARTEMIN-MMH)” value was found to be 0.8 nM.
Still for that read-out and setting: with B2 the figure was 1.8 nM; with B3, 1.5 nM; with B4, 1.3 nM.
With B5, the “IC50 (SRE-luc, HEK293/MfGFRα3/MfRET cells, 500 pM human ARTEMIN-MMH)” value came out at 2.5 nM.
The same measure, in the same setting: next, B6: 0.7 nM.

For a further assay, the target named is T2, human GFRα3 expressed with a C-terminal …. Briefly: Octet RED384; 25 µg/mL first antibody on streptavidin-captured biotin-hGFRα3-mmH. As to the method:
as §1
For the molecule B1, the “Amount of Antibody 1 bound (nm)” value stood at 2.42 nm.
In the case of B2, the “Amount of Antibody 1 bound (nm)” value was found to be 2.32 nm.
As to B3, the “Amount of Antibody 1 bound (nm)” value was 2.82 nm.
On the same count and under the same terms, next, B4: 2.74 nm; B5: 2.69 nm; B6: 2.91 nm.

For a further assay the target is unchanged. Briefly: Octet cross-competition; biotin-hGFRα3-mmH pre-saturated with first antibody H4H2352S. The protocol: as §1
Regarding B1, the “binding response of second antibody (nm)” value amounted to 0.13 nm.
Same read-out and setting: with B2 the figure was 0.05 nm; with B3, 0.15 nm.
In the case of B4, the “binding response of second antibody (nm)” value is 0.1 nm.
The same measure, in the same setting: with B5 the figure was 2.08 nm; with B6, 2.25 nm.
